Key:
[1] = substrate: O=P(O)(O)O[C@H]1O[C@H](CO)[C@@H](O)[C@H](O)[C@H]1O; experiment: purified protein, by the assay type; set-up: Michaelis-Menten kinetics of substrate hydrolysis, initial rates of free phosphate release, pH 7.0, 37 °C
Procedure: 8 S1.10 Structure determination and refinement The structure of H18D was determined by molecular replacement with PHASER9 using PDB ID: 1NT4 (H18A) as a search model. Model building was performed with COOT10 and refine-ment was carried out with phenix.refine. 11 The final structures were evaluated using MolPro-bity. 12 The number of Ramachandran outliers was below 0.2%. Figures of the structural models were prepared using PyMol 1.3. 13 S1.11 Phosphatase kinetics The rate constant kcat and the Michaelis constant KM were determined by measuring the initial rate of phosphate hydrolysis catalyzed by wild-type ecAGP (2 nM), H18D or H18D-2 (110 µM), D290A (2 nM - 5 µM, depending on the substrate used) or H18D/D290A (110 µM) in 50 mM HEPES buffer (pH 7.0). Reactions were incubated at 37°C on a Thermomixer comfort (Eppendorf, Hamburg, Germany) with agitation at 650 rpm. The reactions were started by ad-dition of enzyme. Glc1P, Glc6P, and the bis(cyclohexylammonium) salts of [compound left out], 2-nitrophenyl phosphate, 3-nitrophenyl phosphate, [compound left out] phosphate, 4-cyanophenyl S13 phosphate and 3-chlorophenyl phosphate were used as substrates in concentrations ranging from 0.01 mM to 10 mM. Incubation times were adjusted to ensure that the overall substrate hydrolysis was below 10 %. Samples withdrawn were quenched by heating (99°C, 5 min) and the free phosphate concentration was measured in supernatants of centrifuged (16000 × g, 15 min, 4°C) samples. All reactions were performed in triplicate. Kinetic parameters were obtained from non-linear least squares fits (SigmaPlot, Systat, Erkrath, Germany) of initial rates of phosphate release to the Michaelis–Menten equation. V is the initial rate, Vmax is the maximum initial rate, KM is the Michaelis constant and [S] is the initial substrate concentration (equation 1). The kcat was obtained from the relationship, kcat = Vmax/[E], where [E] is the molar concentration of active sites. [E] was obtained from the protein concentration using a molecular mass of the ecAGP subunit of 46674 Da. S10 (Merck Millipore) to a total protein concentration of 13 mg/mL in 10 mM NaAc (pH 4.5). Aliquots of 70 µL were stored at -70°C until use. Purity of the protein preparations was verified by SDS-PAGE. The ecAGP activity was assayed as described below in the section phosphatase kinetics. One unit of ecAGP activity is the amount of enzyme releasing 1 μmol of inorganic phosphate from Glc1P per minute under the conditions applied. S1.5 YidA The YidA from E. coli was used. A N-terminally His-tagged enzyme preparation was applied. […]

[2] = substrate: O=P(O)(O)O[C@H]1O[C@H](CO)[C@@H](O)[C@H](O)[C@H]1O; experiment: phosphomonoester hydrolysis kinetics; format: biochemical, Escherichia coli

B1: ecAGP (α-D-glucose 1-phosphate phosphatase) (Escherichia coli K-12) (protein)
chain: QTVPEGYQLQQVLMMSRHNLRAPLANNGSVLEQSTPNKWPEWDVPGGQLTTKGGVLEVYMGHYMREWLAEQGMVKSGECPPPYTVYAYANSLQRTVATAQFFITGAFPGCDIPVHHQEKMGTMDPTFNPVITDDSAAFSEQAVAAMEKELSKLQLTDSYQLLEKIVNYKDSPACKEKQQCSLVDGKNTFSAKYQQEPGVSGPLKVGNSLVDAFTLQYYEGFPMDQVAWGEIKSDQQWKVLSKLKNGYQDSLFTSPEVARNVAKPLVSYIDKALVTDRTSAPKITVLVGHDSNIASLLTALDFKPYQLHDQNERTPIGGKIVFQRWHDSKANRDLMKIEYVYQSAEQLRNADALTLQAPAQRVTLELSGCPIDADGFCPMDKFDSVLNEAVK
notes: purified enzyme; homodimer; expression construct and tags only in supplement
Km [1]: 90 ± 20 µM | kcat [1]: 35 ± 1.7 s⁻¹ | kcat ([2]; range printed jointly for wild-type and H18D, individual values in supplement): 35 ± 2 s^–1

B2: ecAGP (α-D-glucose 1-phosphate phosphatase) (Escherichia coli K-12; H40D) (protein)
chain: QTVPEGYQLQQVLMMSRDNLRAPLANNGSVLEQSTPNKWPEWDVPGGQLTTKGGVLEVYMGHYMREWLAEQGMVKSGECPPPYTVYAYANSLQRTVATAQFFITGAFPGCDIPVHHQEKMGTMDPTFNPVITDDSAAFSEQAVAAMEKELSKLQLTDSYQLLEKIVNYKDSPACKEKQQCSLVDGKNTFSAKYQQEPGVSGPLKVGNSLVDAFTLQYYEGFPMDQVAWGEIKSDQQWKVLSKLKNGYQDSLFTSPEVARNVAKPLVSYIDKALVTDRTSAPKITVLVGHDSNIASLLTALDFKPYQLHDQNERTPIGGKIVFQRWHDSKANRDLMKIEYVYQSAEQLRNADALTLQAPAQRVTLELSGCPIDADGFCPMDKFDSVLNEAVK
notes: as for B1
kcat ([2]; range printed jointly for wild-type and H18D, phospho-enzyme intermediate on Asp18): 2.0 × 10^–4 s^–1

B3: ecAGP (α-D-glucose 1-phosphate phosphatase) (Escherichia coli K-12; D312A) (protein)
chain: QTVPEGYQLQQVLMMSRHNLRAPLANNGSVLEQSTPNKWPEWDVPGGQLTTKGGVLEVYMGHYMREWLAEQGMVKSGECPPPYTVYAYANSLQRTVATAQFFITGAFPGCDIPVHHQEKMGTMDPTFNPVITDDSAAFSEQAVAAMEKELSKLQLTDSYQLLEKIVNYKDSPACKEKQQCSLVDGKNTFSAKYQQEPGVSGPLKVGNSLVDAFTLQYYEGFPMDQVAWGEIKSDQQWKVLSKLKNGYQDSLFTSPEVARNVAKPLVSYIDKALVTDRTSAPKITVLVGHASNIASLLTALDFKPYQLHDQNERTPIGGKIVFQRWHDSKANRDLMKIEYVYQSAEQLRNADALTLQAPAQRVTLELSGCPIDADGFCPMDKFDSVLNEAVK
notes: as for B1
Km ([2]; general acid-base removed): 1060 ± 120 µM | kcat ([2]; general acid-base removed): 0.014 ± 0.01 s⁻¹

B4: YidA (alternative name: HAD13) (Escherichia coli K-12) (protein)
chain: MAIKLIAIDMDGTLLLPDHTISPAVKNAIAAARARGVNVVLTTGRPYAGVHNYLKELHMEQPGDYCITYNGALVQKAADGSTVAQTALSYDDYRFLEKLSREVGSHFHALDRTTLYTANRDISYYTVHESFVATIPLVFCEAEKMDPNTQFLKVMMIDEPAILDQAIARIPQEVKEKYTVLKSAPYFLEILDKRVNKGTGVKSLADVLGIKPEEIMAIGDQENDIAMIEYAGVGVAMDNAIPSVKEVANFVTKSNLEDGVAFAIEKYVLN
notes: construct only in supplement
Km [1]: 210 ± 30 µM | kcat [1]: 20 ± 1.3 s⁻¹

Source: publication PMC8938923, “Essential Functional Interplay of the Catalytic Groups in Acid Phosphatase” (ACS Catalysis, 2022)
